Measured values from patent US20110135573A1 (DYAX, published 2011).

Assays:
[1] = biological target: T1, human MMP-2 (Biomol #SE-237) (human, UniProt P08253 110-452, limits assumed); test: Ki,app, enzyme inhibition assay (fluorogenic peptide substrate), small-scale sFab
T1 construct: also called hMMP-2
Protocol: (§1) Target enzymes were incubated with inhibitor for two hours at 30° C. in reaction buffer (50 mM Tris-HCl pH 7.5, 150 mM NaCl, 5 mM CaCl₂, 0.05% Brij-35) in a total volume of 90 μL using a white 96 well plate (Costar). […] An anti-MMP-2 antibody (R&D Systems polyclonal IgG #AF902) was similarly tested with 200 nM as the highest inhibitor concentration. Reactions were initiated by the addition of 10 μL of a 10× concentrated stock of substrate, Mca-Lys-Pro-Leu-Gly-Leu-Dap(Dnp)-Ala-Arg-NH2, (Bachem M-2350), at final concentration of 10 μM and monitored at 30° C. in a Molecular Devices' Gemini fluorescence plate reader. The excitation and emission wavelengths were set at 328 nm and 393 nm, respectively. Kinetic data were acquired by the increase in fluorescence, and initial rates for each condition were plotted against the total inhibitor concentration. Reactions were performed in duplicates and all data replicates were plotted in a single graph and fit to the following equation¹: […]

[2] = biological target: T2, Human MMP-9 catalytic domain (BIOMOL, SE-244) (human, UniProt P14780 107-457, limits assumed); test: as above
T2 construct: domain: catalytic domain; also called Cat-huMMP-9; cat-huMMP-9
T2 sequence (P14780 107-457 limits assumed): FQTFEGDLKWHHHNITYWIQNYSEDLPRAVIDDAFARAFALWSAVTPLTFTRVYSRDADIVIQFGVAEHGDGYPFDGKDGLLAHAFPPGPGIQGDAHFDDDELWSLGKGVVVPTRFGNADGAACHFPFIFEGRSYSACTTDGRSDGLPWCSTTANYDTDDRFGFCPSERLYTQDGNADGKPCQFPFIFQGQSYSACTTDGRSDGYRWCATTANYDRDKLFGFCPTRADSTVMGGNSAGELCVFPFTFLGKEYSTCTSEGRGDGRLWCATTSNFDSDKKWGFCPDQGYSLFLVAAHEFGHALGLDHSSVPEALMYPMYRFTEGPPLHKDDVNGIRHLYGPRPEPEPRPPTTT
Protocol: as §1

[3] = biological target: T3, Mouse MMP-9 (R&D, 909-MM), APMA-activated (mouse, UniProt P41245 108-730, limits assumed); test: as above
T3 construct: also called mMMP-9; mouse MMP-9 (R&D Systems #909-MM-010)
T3 sequence (P41245 108-730 limits assumed): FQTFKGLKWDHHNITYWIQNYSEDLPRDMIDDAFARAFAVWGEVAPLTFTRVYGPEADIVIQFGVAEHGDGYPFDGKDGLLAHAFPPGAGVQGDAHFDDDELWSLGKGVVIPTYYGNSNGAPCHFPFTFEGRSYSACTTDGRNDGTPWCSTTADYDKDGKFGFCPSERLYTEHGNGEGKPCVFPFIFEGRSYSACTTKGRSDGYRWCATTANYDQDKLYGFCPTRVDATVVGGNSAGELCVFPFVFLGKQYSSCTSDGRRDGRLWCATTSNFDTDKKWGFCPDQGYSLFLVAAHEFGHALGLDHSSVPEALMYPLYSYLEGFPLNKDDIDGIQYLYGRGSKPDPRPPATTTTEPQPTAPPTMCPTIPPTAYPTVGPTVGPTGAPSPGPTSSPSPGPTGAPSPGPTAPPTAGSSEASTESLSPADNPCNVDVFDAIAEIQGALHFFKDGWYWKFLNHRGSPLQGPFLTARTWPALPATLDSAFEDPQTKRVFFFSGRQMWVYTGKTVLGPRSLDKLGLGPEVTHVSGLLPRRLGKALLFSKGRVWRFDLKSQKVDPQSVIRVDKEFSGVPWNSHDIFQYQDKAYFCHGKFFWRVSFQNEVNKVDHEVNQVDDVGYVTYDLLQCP
Protocol: as §1

[4] = biological target: T1, human MMP-2 (Biomol #SE-237); test: Ki,app, enzyme inhibition assay (fluorogenic peptide substrate), medium-scale sFab
Protocol: as §1

[5] = biological target: T2, Human MMP-9 catalytic domain (BIOMOL, …); test: as above
Protocol: as §1

[6] = biological target: T3, Mouse MMP-9 (R&D, 909-MM), …; test: as above
Protocol: as §1

[7] = biological target: T1, human MMP-2 (Biomol #SE-237); test: as above; remark: listed apart in the source
[8] = biological target: T2, Human MMP-9 catalytic domain (BIOMOL, …); test: as above; remark: listed apart in the source
[9] = biological target: T3, Mouse MMP-9 (R&D, 909-MM), …; test: as above; remark: listed apart in the source
[10] = biological target: T2, Human MMP-9 catalytic domain (BIOMOL, …); test: Ki,app, enzyme inhibition assay (fluorogenic peptide substrate), small-scale sFab; remark: listed apart in the source
MMP-10 (Biomol SE-329) = MMP-10 (Biomol SE-329) (UniProt P09238 99-265, limits assumed); test: cell-based or functional assay
Chain of MMP-10 (Biomol SE-329) (P09238 99-265 limits assumed): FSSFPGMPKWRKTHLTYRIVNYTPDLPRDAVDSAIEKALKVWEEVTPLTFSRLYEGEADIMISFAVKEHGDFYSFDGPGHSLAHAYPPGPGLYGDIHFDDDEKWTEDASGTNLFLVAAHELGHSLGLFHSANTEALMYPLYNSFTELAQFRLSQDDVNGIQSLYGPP

MMP-8 (Biomol SE-255) = MMP-8 (Biomol SE-255) (UniProt P22894 100-262, limits assumed); test: cell-based or functional assay
Chain of MMP-8 (Biomol SE-255) (P22894 100-262 limits assumed): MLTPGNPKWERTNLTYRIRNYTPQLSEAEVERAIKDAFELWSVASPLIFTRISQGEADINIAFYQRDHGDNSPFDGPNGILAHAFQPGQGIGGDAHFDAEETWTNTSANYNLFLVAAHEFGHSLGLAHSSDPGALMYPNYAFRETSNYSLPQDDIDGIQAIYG

TACE (R&D Systems) = TACE (R&D Systems) (UniProt P78536 215-671, limits assumed); test: cell-based or functional assay
Chain of TACE (R&D Systems) (P78536 215-671 limits assumed): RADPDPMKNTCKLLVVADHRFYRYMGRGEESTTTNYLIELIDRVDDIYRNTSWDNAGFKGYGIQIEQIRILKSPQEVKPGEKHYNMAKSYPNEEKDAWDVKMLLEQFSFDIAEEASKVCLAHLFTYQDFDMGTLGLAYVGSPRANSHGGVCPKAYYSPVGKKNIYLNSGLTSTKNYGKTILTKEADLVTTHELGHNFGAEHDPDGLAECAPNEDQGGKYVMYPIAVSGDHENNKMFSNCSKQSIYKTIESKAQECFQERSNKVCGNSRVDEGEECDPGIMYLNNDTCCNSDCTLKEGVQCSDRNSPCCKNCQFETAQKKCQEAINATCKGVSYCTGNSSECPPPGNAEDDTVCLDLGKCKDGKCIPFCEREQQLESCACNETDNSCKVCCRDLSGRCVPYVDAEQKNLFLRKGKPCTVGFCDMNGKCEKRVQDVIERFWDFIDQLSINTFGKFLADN

[11] = biological target: MMP-15 (Calbiochem #475938) (UniProt P51511 132-304, limits assumed); test: cell-based or functional assay
Chain of MMP-15 (Calbiochem #475938) (P51511 132-304 limits assumed): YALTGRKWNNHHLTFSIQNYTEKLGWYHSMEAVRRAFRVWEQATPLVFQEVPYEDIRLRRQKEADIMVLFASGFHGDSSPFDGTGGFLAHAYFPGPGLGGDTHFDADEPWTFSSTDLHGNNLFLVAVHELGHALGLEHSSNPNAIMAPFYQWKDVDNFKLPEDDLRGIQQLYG

MMP-13 (Biomol SE-246) = MMP-13 (Biomol SE-246) (UniProt P45452 104-274); test: cell-based or functional assay
MMP-14 (Biomol SE-259) = MMP-14 (Biomol SE-259) (UniProt P50281 112-284, limits assumed); test: cell-based or functional assay
MMP-1 (Biomol SE-180) = biological target: T4, MMP-1 (Biomol SE-180) (UniProt P03956 100-269, limits assumed); test: cell-based or functional assay
T4 sequence (looked up): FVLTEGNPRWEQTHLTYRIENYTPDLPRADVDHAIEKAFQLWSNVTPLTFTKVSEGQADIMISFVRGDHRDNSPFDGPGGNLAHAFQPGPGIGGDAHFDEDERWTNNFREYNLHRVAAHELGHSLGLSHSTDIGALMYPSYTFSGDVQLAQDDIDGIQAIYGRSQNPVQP

MMP-12 (Biomol SE-138) = MMP-12 (Biomol SE-138) (UniProt P39900 106-263, limits assumed); test: cell-based or functional assay
Chain of MMP-12 (Biomol SE-138) (P39900 106-263 limits assumed): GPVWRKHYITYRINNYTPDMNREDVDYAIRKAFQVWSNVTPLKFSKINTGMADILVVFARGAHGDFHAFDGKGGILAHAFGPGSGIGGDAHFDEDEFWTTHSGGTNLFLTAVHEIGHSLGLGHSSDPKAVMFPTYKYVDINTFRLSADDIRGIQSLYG

[12] = biological target: MMP-16 (Calbiochem #475939) (UniProt P51512 120-292, limits assumed); test: cell-based or functional assay
Chain of MMP-16 (Calbiochem #475939) (P51512 120-292 limits assumed): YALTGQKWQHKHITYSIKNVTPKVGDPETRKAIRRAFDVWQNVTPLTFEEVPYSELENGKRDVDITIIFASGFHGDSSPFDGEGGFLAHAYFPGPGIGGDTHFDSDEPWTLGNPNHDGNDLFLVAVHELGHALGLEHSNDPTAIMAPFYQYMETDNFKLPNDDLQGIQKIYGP

[13] = biological target: MMP-3 (R&D Systems #513-MP) (UniProt P08254 18-477, limits assumed); test: cell-based or functional assay
Chain of MMP-3 (R&D Systems #513-MP) (P08254 18-477 limits assumed): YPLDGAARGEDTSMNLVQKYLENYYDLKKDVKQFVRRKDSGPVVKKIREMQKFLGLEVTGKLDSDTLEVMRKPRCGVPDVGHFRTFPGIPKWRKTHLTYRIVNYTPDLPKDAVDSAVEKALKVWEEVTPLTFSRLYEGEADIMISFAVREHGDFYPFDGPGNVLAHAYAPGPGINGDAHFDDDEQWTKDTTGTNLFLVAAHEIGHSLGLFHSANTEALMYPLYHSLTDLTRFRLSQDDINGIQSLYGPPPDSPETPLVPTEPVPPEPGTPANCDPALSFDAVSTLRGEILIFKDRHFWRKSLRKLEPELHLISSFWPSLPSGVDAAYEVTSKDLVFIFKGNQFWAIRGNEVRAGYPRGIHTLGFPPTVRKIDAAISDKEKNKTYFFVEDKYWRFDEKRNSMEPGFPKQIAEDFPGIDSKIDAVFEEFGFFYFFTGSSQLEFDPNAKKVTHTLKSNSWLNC

MMP-7 (Biomol SE-181) = biological target: T5, MMP-7 (Biomol SE-181) (UniProt P09237 95-267); test: cell-based or functional assay
T5 sequence (looked up): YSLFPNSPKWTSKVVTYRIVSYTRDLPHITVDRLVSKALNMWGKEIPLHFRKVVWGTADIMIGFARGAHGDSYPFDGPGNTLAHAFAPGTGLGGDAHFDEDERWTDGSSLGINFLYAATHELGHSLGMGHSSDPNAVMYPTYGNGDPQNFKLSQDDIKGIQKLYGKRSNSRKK

[14] = biological target: T1, human MMP-2 (Biomol #SE-237); test: Ki,app, enzyme inhibition assay (fluorogenic peptide substrate), IgG
[15] = biological target: T2, Human MMP-9 catalytic domain (BIOMOL, …); test: as above
[16] = biological target: T3, Mouse MMP-9 (R&D, 909-MM), …; test: as above
[17] = biological target: T6, MMP-26 (Dyax prep #020209) (UniProt Q9NRE1 90-261, limits assumed); test: cell-based or functional assay
T6 sequence (looked up): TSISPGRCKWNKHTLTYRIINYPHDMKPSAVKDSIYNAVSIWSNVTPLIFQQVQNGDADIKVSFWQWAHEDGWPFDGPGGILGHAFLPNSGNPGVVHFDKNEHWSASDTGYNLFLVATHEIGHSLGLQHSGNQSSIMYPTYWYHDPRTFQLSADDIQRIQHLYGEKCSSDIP

T1 sequence (P08253 110-452 limits assumed): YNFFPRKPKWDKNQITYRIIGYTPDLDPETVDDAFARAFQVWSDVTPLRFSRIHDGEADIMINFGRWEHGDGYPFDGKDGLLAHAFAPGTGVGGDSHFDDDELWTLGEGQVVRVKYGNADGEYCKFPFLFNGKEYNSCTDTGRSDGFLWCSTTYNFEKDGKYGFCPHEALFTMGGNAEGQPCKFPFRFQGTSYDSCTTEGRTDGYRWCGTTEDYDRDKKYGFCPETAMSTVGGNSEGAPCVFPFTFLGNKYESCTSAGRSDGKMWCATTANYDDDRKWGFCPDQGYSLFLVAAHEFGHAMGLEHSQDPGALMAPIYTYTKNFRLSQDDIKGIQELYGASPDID

B1: M0275-D03 (Fab, V domains shown)
VH: EVQLLESGGGLVQPGGSLRLSCAASGFTFSQYDMWWVRQAPGKGLEWVSVIYPSGTTFYADSVKGRFTISRDNSKNTLYLQMNSLRAEDTAVYYCAKDRAYGDYVGWNGFDYWGQGTLVTVSS
VL: DIQMTQSPATLSLSPGERATLSCRASQSISSFLAWYQQKPGQAPRLLIYDASYRATGIPARFSGSGSGTDFTLTISSLEPEDYAVYYCQQRGNWPITFGQGTRLEIK
notes: sFab; variable domains only; also called M275-D03
Work on B1 yielded a Ki [1] of 0.7 nM, a Ki [2] of 0.6 nM and a Ki [3] of 1.2 nM. It also gave a Ki [4] of 0.5 nM, a Ki [5] of 0.6 nM and a Ki [6] of 1 nM.

B2: M0279-A03 (Fab, V domains shown)
VH: EVQLLESGGGLVQPGGSLRLSCAASGFTFSQYPMWWVRQAPGKGLEWVSYIVPSGGRTYYADSVKGRFTISRDNSKNTLYLQMNSLRAEDTAVYYCAKDRAYGDYVGWNGFDYWGQGTLVTVSS
VL: DIQMTQSPATLSVSPGERVTLSCKASHSISRNLAWYQQKPGQAPRLLIFGASTRATGIPARFSGSGSGTEFTLTISSLEAEDFAVYYCQQRRNWPVTFGPGTKLDFK
notes: sFab; variable domains only; also called M279-A03; M279-A03 sFab
Work on B2 yielded a Ki [7] of over 430 nM, a Ki [8] of 1.6 nM and a Ki [9] of 24 nM. The Ki [10] was 2.2 nM, the “IC50 (enzyme inhibition)” value (MMP-10 (Biomol SE-329)) was over 500 nM and the “IC50 (enzyme inhibition)” value (MMP-8 (Biomol SE-255)) was over 500 nM. For the same binder, the “IC50 (enzyme inhibition)” value (TACE (R&D Systems)) was over 500 nM, the “IC50 (enzyme inhibition)” value [11] was over 500 nM and the “IC50 (enzyme inhibition)” value (MMP-13 (Biomol SE-246)) was over 500 nM. For the same binder, the “IC50 (enzyme inhibition)” value (MMP-14 (Biomol SE-259)) was over 500 nM, the “IC50 (enzyme inhibition)” value (MMP-1 (Biomol SE-180)) was over 500 nM and the “IC50 (enzyme inhibition)” value (MMP-12 (Biomol SE-138)) was over 500 nM. For the same binder, the “IC50 (enzyme inhibition)” value [12] was over 500 nM, the “IC50 (enzyme inhibition)” value [13] was over 500 nM and the “IC50 (enzyme inhibition)” value (MMP-7 (Biomol SE-181)) was over 500 nM.

B3: X0106-A01 (antibody, V domains shown)
VH: EVQLLESGGGLVQPGGSLRLSCAASGFTFSHYDMWWVRQAPGKGLEWVSVIYSSGGPTFYADSVKGRFTISRDNSKNTLYLQMNSLRAEDTAVYYCAKDRAYGDYVGWNGFDYWGQGTLVTVSS
VL: EIVLTQSPATLSLSPGERATLSCRASQSISSFLAWYQQKPGQAPRLLIYDASYRATGIPARFSGSGSGTDFTLTISSLEPEDFAVYYCQQRGNWPITFGQGTRLEIK
notes: Produced and tested as IgG1; germlined, optimized version of M0256-D11; also called X106-A01; X106-A01 IgG
For B3, the Ki [14] was 0.34 nM, the Ki [15] was 0.1 nM and the Ki [16] was 0.25 nM. The “IC50 (enzyme inhibition)” value (MMP-10 (Biomol SE-329)) was over 1000 nM, the “IC50 (enzyme inhibition)” value (MMP-8 (Biomol SE-255)) was over 1000 nM and the “IC50 (enzyme inhibition)” value [17] was 12 nM. For the same binder, the “IC50 (enzyme inhibition)” value (TACE (R&D Systems)) was over 1000 nM, the “IC50 (enzyme inhibition)” value [11] was over 1000 nM and the “IC50 (enzyme inhibition)” value (MMP-13 (Biomol SE-246)) was over 1000 nM. The “IC50 (enzyme inhibition)” value (MMP-14 (Biomol SE-259)) was over 1000 nM, the “IC50 (enzyme inhibition)” value (MMP-1 (Biomol SE-180)) was over 1000 nM and the “IC50 (enzyme inhibition)” value (MMP-12 (Biomol SE-138)) was over 1000 nM. For the same binder, the “IC50 (enzyme inhibition)” value [12] was over 1000 nM, the “IC50 (enzyme inhibition)” value [13] was over 1000 nM and the “IC50 (enzyme inhibition)” value (MMP-7 (Biomol SE-181)) was 900 nM.

B4: M0256-D11 (Fab, V domains shown)
VH: EVQLLESGGGLVQPGGSLRLSCAASGFTFSHYDMWWVRQAPGKGLEWVSVIYSSGGPTFYADSVKGRFTISRDNSKNTLYLQMNSLRAEDTAVYYCAKDRAYGDYVGWNGFDYWGQGTLVTVSS
VL: DIQMTQSPATLSLSPGERATLSCRASQSISSFLAWYQQKPGQAPRLLIYDASYRATGIPARFSGSGSGTDFTLTISSLEPEDYAVYYCQQRGNWPITFGQGTRLEIK
notes: sFab; variable domains only; also called M256-D11; 539A-M0256-D11
With B4 the Ki [2] was 0.3 nM, the Ki [4] was 0.5 nM and the Ki [5] was 0.3 nM. It also gave a Ki [6] of 0.6 nM.

B5: M0288-C08 (Fab, V domains shown)
VH: EVQLLESGGGLVQPGGSLRLSCAASGFTFSQYPMWWVRQAPGKGLEWVSYIVPSGGRTYYADSVKGRFTISRDNSKNTLYLQMNSLRAEDTAVYYCAKDRAYGDYVGWNGFDYWGQGTLVTVSS
VL: DIQMTQSPGTLSVSPGERVTLSCRASQSVSSYLAWYQQKPGQAPRLLIYGASTRVTGIPARFSGSGSGTEFTLTISSLQSEDFAVYYCQQRSSWPITFGQGTRLEIK
notes: sFab; variable domains only; also called M288-C08
With B5 the Ki [7] was over 1000 nM, the Ki [8] was 1.8 nM and the Ki [9] was 13 nM. The Ki [10] was 2 nM.

B6: M0274-G08 (Fab, V domains shown)
VH: EVQLLESGGGLVQPGGSLRLSCAASGFTFSVYDMWWVRQAPGKGLEWVSVIYPSGGATYYADSVKGRFTISRDNSKNTLYLQMNSLRAEDTAVYYCAKDRAYGDYVGWNGFDYWGQGTLVTVSS
VL: DIQMTQSPATLSLSPGERATLSCRASQSISSFLAWYQQKPGQAPRLLIYDASYRATGIPARFSGSGSGTDFTLTISSLEPEDYAVYYCQQRGNWPITFGQGTRLEIK
notes: sFab; variable domains only; also called M274-G08
B6 was tested, and the Ki [2] was 0.6 nM, the Ki [4] was 0.4 nM and the Ki [5] was 0.5 nM. It also gave a Ki [6] of 0.6 nM.

B7: M0307-F04 (Fab, V domains shown)
VH: EVQLLESGGGLVQPGGSLRLSCAASGFTFSLYDMWWVRQAPGKGLEWVSVIYSSGGYTGYADSVKGRFTISRDNSKNTLYLQMNSLRAEDTAVYYCAKDRAYGDYVGWNGFDYWGQGTLVTVSS
VL: DIQMTQSPATLSLSPGERATLSCRASQSISSFLAWYQQKPGQAPRLLIYDASYRATGIPARFSGSGSGTDFTLTISSLEPEDYAVYYCQQRGNWPITFGQGTRLEIK
notes: sFab; variable domains only; also called M307-F04
Binder B7 has a Ki [1] of 0.1 nM, a Ki [2] of 0.1 nM and a Ki [3] of 0.1 nM. It also gave a Ki [4] of 0.4 nM, a Ki [5] of 0.8 nM and a Ki [6] of 0.4 nM.

B8: M0276-F11 (Fab, V domains shown)
VH: EVQLLESGGGLVQPGGSLRLSCAASGFTFSWYDMWWVRQAPGKGLEWVSVIYSSGGPTFYADSVKGRFTISRDNSKNTLYLQMNSLRAEDTAVYYCAKDRAYGDYVGWNGFDYWGQGTLVTVSS
VL: DIQMTQSPATLSLSPGERATLSCRASQSISSFLAWYQQKPGQAPRLLIYDASYRATGIPARFSGSGSGTDFTLTISSLEPEDYAVYYCQQRGNWPITFGQGTRLEIK
notes: sFab; variable domains only; also called M276-F11
B8 gave a Ki [1] of 0.2 nM, a Ki [2] of 0.2 nM and a Ki [3] of 0.4 nM. It also gave a Ki [4] of 0.4 nM, a Ki [5] of 0.4 nM and a Ki [6] of 0.6 nM.
